Here are results for 18 molecules from patent US20220112288A1 (published 2022).

B1: 75110_06C16A (antibody, V domains shown)
VH: QVQLQESGPGLVTPSETLSLSCTVSGGSISDYYWSWIRQPGGKGLEWIGRIYSSGSTNYNPSLKSRVTMSVDTSKNQFSLKLSSVTAADTAVYFCARDREDYYYYGMDVWGQGTTVTVSS
VL: DIQMTQSPSSLSASVGDRVTITCQASHDISNYLNWYQQKPGKAPKLLIYAASNLETGVPSRFSGSGSGTDFSFTISSLQPEDIATYYCQQYDHLPLTFGGGTKVEIK
notes: Tested as antibody purified from AlivaMab Mouse Kappa hybridoma (human V regions, kappa light chain, mouse Fc captured by anti-mouse Fc sensors)
B2: 75110_06G04A (antibody, V domains shown)
VH: QVQLLESGPGLVKPSETLSLTCTVSGGSISSYYWSWIRQPAGKGLEWIGRIYISGSTNYNPSLKSRVTMSIDTSENQFSLNLSSVTAADTAVYYCARELERPYYYGMDVWGQGTTVTVSS
VL: DIQMTQSPSSLSASVGDRVTITCQASQDISNYLNWYQQKPGKAPKLLIYNASTLETGVPSRFSGSGSGTDFTFTISSLQPEDIATYYCQQYDNLPLTFGGGTKVEFK
notes: as for B1
B3: 75110_08D24A (antibody, V domains shown)
VH: QVQLQESGPGLVKPSETLSLTCTVSGGSISGFYWSWIRQPAGKGLEWIGRIYTSENTNYNPSLKSRVTMSVDTSKNQFSLKLSSVTAADTAVYYCARDREGYYYYGMDVWGQGTTVTVSS
VL: DIQMTQSPSSLSASVGDRVTITCQASQDISNYLNWYQQKPGKAPKLLIYAASNLETGVPSRFSGSGSGTDFTFTISSLQPEDIATYYCQQYDSLPITFGQGTRLEIK
notes: as for B1
B4: 75110_06K03A (antibody, V domains shown)
VH: QVQLQESGPGLVKPSETLSLTCTVSGGSISTYYWSWIRQPAGKGLEWIGRINTSGSTTYNPSLKSRVTMSVDTSKNQFSLKLSSVTAADTAVYYCARELERYYYYGMDVWGQGTTVTVSS
VL: DIQMTQSPSSLSASVGDRVTITCQASQDISNYLNWYQQKPGKAPKLLIYYASILETGVPSRFSGSGSGTDFTFTISSLQPEDIATYYCQQYDSLPLTFGGGTKVEIK
notes: as for B1
B5: 75110_06E14A (antibody, V domains shown)
VH: QVQLQESGPGLVKPSETLSLTCTVSGGSISNYFWSWIRQPAGKGLEWIGRIYSSGNTNYNPSLKSRVTMSVDTSKNQFSLKLSSVTAADTAVYYCARDREDYYYYGMDVWGQGTTVTVSS
VL: DIQMTQSPSSLSASVGDRVTITCQASQDISNYLNWYQQKPGKAPKLLIYGASILETGVPSRFTGSGSGTDFTFTISSLQPEDIATYYCQQYDSLPITFGQGTRLEIK
notes: as for B1
B6: 75110_08M20A (antibody, V domains shown)
VH: QVQLQESDPGLVKPSETLSLTCTVSGGSISSYYWSWIRQPAGKGLEWIGRIYASGSTNYNPSLKSRVTMSVDTSKNQFSLKLSSVTAADTAVYYCARDREGYYYYGMDVWGQGTTVTVSS
VL: DIQMTQSPSSLSASVGDRVTITCQASQDISKYLNWYQQKPGKAPNLLIYAASNLETGVPSRFSGSGSGTDFTFTISSLQPEDIAAYYCQQYDSLPITFGQGTRLEIK
notes: as for B1
B7: 75110_06D16A (antibody, V domains shown)
VH: QVQLQQWGAGLLKPSETLSLTCAVYGGSFSGYYWSWIRQPPGKGLEWIGEINHSGSTNYNPSLKSRVTISVVTSKNQFSLKLSSVTAADTAVYYCARVLNWFDPWGQGTLVTVSS
VL: DIQMTQSPSSVSASVGDRVTITCRASQDIADWLAWYQQKPGKAPKLLIYAASSFQSGVPSRFSGSGSGTDFTLTISSLQPEDFATYFCQQANSFPYTFGQGTKLEIK
notes: as for B1
B8: 75110_05L07A (antibody, V domains shown)
VH: EVQLVESGGGLVQPGGSLRLSCAASGFTFSSYWMSWVRQAPGKGLEWVANINQDGSDKYYVDSVKGRFTISRDNVKNSLYLQINSLRAEDTAVYYCAREGGQWLTLDYWGQGTLVTVSS
VL: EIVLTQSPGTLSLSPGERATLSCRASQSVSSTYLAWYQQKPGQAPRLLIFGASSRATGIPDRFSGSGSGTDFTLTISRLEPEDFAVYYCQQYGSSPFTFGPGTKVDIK
notes: as for B1
B9: 75110_08H11A (antibody, V domains shown)
VH: EVQLVESGGGLVQPGGSLRLSCAASGFTFSSYDMHWVRQATGKGLEWVSTIGTAGDTYYPGSVKGRFTISRENAKNSLYLQMNSLRAGDTAVYYCARGGYSYYGMDVWGQGTTVTVSS
VL: EIVLTQSPGTLSLSPGERATLSCGASQSVSSTYLAWYQQKPGQAPRLLIYGASSRATGIPDRFSGSGSGTDFTLTISRLEPEDFAVYYCQQFGSSPFTFGPGTKVDIK
notes: Tested as antibody purified from AlivaMab Mouse Kappa hybridoma (human V regions, kappa light chain, mouse Fc captured by anti-mouse Fc sensors); also called 75110_08H1lA
B10: 75110_05K11A (antibody, V domains shown)
VH: EVQLVESGGGLVQPGGSLRLSCAASGFTFSSYDMHWVRQPTGKGLEWVSTIGTAGDTYYPASVKGRFTISRENAKNSLYLQMNSLRAGDTAVYYCARGGFYYYGMDVWGQGTTVTVSS
VL: EIVLTQSPGTLSLSPGERVTLSCRASQSVSNTYLAWYQQKPGQAPRLLIYGASSRATGIPDRFSGSGSGTDFTLTISRLEPEDFVVYYCQQHGSSPFTFGPGTKVDIK
notes: as for B1
B11: 75110_08H06A (antibody, V domains shown)
VH: EVQLVESGGGLVQPGGSLRLSCAASGFTFSNYDMHWVRQATGKGLEWVSTIGTAGDTYYPGSVKGRFTISRENAKNSLYLQMNSLRAGDTAVYYCARGGYDYYGMDVWGQGTTVTVSS
VL: EIVLTQSPGTLSLSPGERATLSCRASQSITSIYLAWYRQKPGQAPRLLIYGASSRATGIPDRFSGSGSGTDFTLTISRLEPEDFAVYYCQQYGSSPFTFGPGTKVDIK
notes: as for B1
B12: 75110_10O16A (antibody, V domains shown)
VH: EVQLVESGGGLVQPGGSLRLSCAASGFTFSNSDMHWVRQATGKGLEWVSTIGTAGDTYYPGSVKGRFTISRENAKNSLYLQMNSLRAGDTAVYYCARGGLYYYGMDVWGQGTTVTVSS
VL: ENVLTQSPGTLSLSPGERATLSCRASQSVSSSYLAWYQQKPGQAPRLLIYGASSRATGIPDRFSGSGSGTDFTLTISRLEPEDFAVYYCHQFGSSPFTFGPGTKVDIK
notes: Tested as antibody purified from AlivaMab Mouse Kappa hybridoma (human V regions, kappa light chain, mouse Fc captured by anti-mouse Fc sensors); also called 75110_10016A
B13: 75110_14H13A (antibody, V domains shown)
VH: EVQLVESGGGLVQPGGSLRLSCAASGFTFSNYDMHWVRQATGKGLEWVSTIGTAGDTYYPGSVKGRFTISRKNAKNSLYLQMISLRAGDTAVYYCARGGDYYYGMDVWGQGTTVTVSS
VL: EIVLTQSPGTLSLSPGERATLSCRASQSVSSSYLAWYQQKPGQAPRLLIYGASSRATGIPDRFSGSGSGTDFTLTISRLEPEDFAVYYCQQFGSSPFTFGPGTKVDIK
notes: as for B1
B14: 75110_13C07A (antibody, V domains shown)
VH: EVQLVESGGVLVQPGGSLRLSCAASGFTFSNYDMHWVRQATGKGLEWVSTIGTAGDTYYPGSVKGRFTLSRENAKNSLYLQMHSLRAGDTAVYYCARGAYGYYGMDVWGQGTTVTVSS
VL: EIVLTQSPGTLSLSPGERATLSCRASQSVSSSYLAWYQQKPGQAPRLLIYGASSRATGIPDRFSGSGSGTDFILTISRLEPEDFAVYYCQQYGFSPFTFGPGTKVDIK
notes: as for B1
B15: 75110_10L22A (antibody, V domains shown)
VH: EVQLVESGGGLVQPGGSLRLSCAASGFTFSSYDMHWVRQATGKGLEWVSTIGTAGDTYYPGSVKGRFTISRENAKNSLYLQMNGLRAGDTAVYYCARGNYFYYGVDVWGQGTTVTVSS
VL: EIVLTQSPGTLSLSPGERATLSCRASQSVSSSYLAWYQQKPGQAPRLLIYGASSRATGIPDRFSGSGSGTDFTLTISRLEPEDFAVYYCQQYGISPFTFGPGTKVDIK
notes: as for B1
B16: 75110_10N21A (antibody, V domains shown)
VH: EVQLVESGGGLVQPGGSLRLSCAASGFTFSSYDMHWVRQVTGKGLEWVSTIGTAGDTYYPGSVKGRFTISRENAKNSLYLQMNSLRAGDTAVYYCARGGYYYYGMDVWGQGTTVTVSS
VL: EIVLTQSPGTLSLSPGERATLSCRASQSFISSYLAWYQQKPGQAPRLLIYGASSRATGIPDRFSGSGSGTDFTLTISRLDPEDFAVYYCQQSGNSPFTFGPGTKVDVK
notes: as for B1
B17: 75110_07E04A (antibody, V domains shown)
VH: EVQLVESGGGLVQPGGSLRLSCAVSGFTFSSYDMHWVRQATGKGLEWVSTIGTAGDTYYPGSVKGRFTISRENAKKFLYLQMNSLRAGDTAVYYCARGGYYYYGMDVWGQGTTVTVSS
VL: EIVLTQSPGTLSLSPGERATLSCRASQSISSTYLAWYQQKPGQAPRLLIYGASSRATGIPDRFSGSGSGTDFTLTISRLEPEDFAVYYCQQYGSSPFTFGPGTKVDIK
notes: as for B1
B18: 75110_08K12A (antibody, V domains shown)
VH: EVQLVESGGGLVQPGGSLRLSCAASGFTFSSYDMHWVRQATGKGLEWVSTIGTAGDTYYPGSVKGRFTISRENAENSLYLQMNSLRAGDTALYYCARGDYYYYGMDVWGQGTTVTVSS
VL: EIVLTQSPGTLSLSPGERATLSCRASQSVSSTYLAWYQQKPGQAPRLLIYGASNRATGIPDRFSGSGSGTDFTLTISRLEPEDFAVYYCQQFGTSPFTFGPGTKVDIK
notes: as for B1
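Note: antibodies loaded at 10 µg/mL, curves fitted across association and dissociation phases, with an unrelated mouse-derived antibody serving as internal reference control.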

The target of this assay is T1, Recombinant human CD4 (R&D Systems, Cat. 10327-CD) (human, UniProt P01730 26-390, limits assumed).
T1 construct: Bought protein; also called huCD4
As to the kind of experiment: BLI (Octet Red384), purified antibody on anti-mouse Fc sensors, human CD4 100/50/25 nM, global 1:1 fit. (In general: In BLI a coated tip is dipped into the sample, and binding shifts an interference pattern.)
Usually Kd stands for the constant that tells how readily two partners part at equilibrium. In general, koff refers to a measure of how fast the partners let go of each other. Usually kon stands for the rate constant with which the complex forms. As to B1, the Kd worked out at 16 nM, the Response stood at 0.15, the koff is 0.0012 s⁻¹ and the kon was 75000 M⁻¹ s⁻¹.
For the molecule B2, the Kd is 6 nM, the Response is 0.07, the koff was 0.0015 s⁻¹ and the kon worked out at 250000 M⁻¹ s⁻¹.
For B3, the Kd was determined as 22 nM, the Response worked out at 0.11, the koff stood at 0.00027 s⁻¹ and the kon was determined as 12000 M⁻¹ s⁻¹.
B4: the Kd stood at 2.2 nM, the Response amounted to 0.11, the koff was determined as 3.6e-05 s⁻¹ and the association rate constant (kon) stood at 16000 M⁻¹ s⁻¹.
For B5 the same measures were 14 nM, 0.11, 0.00026 s⁻¹ and 18000 M⁻¹ s⁻¹.
Turning to B6, the dissociation constant (Kd) is 9.2 nM, the Response is 0.16, the koff was found to be 0.00091 s⁻¹ and the on-rate constant (kon) turned out to be 99000 M⁻¹ s⁻¹.
On the same counts, the results for B7 are 2.8 nM, 0.25, 0.00028 s⁻¹ and 100000 M⁻¹ s⁻¹.
With B8, the Kd was determined as 15 nM, the Response was determined as 0.28, the koff is 0.0016 s⁻¹ and the kon came out at 110000 M⁻¹ s⁻¹.
In the case of B9, the Kd stood at 26 nM, the Response was 0.04, the koff came out at 3.6e-05 s⁻¹ and the kon was determined as 1400 M⁻¹ s⁻¹.
Take B10: the Kd was < 0.001 nM, the Response stood at 0.04, the koff was < 1e-07 s⁻¹ and the kon is 36000 M⁻¹ s⁻¹.
For B11 the same measures were 11 nM, 0.04, 0.00043 s⁻¹ and 39000 M⁻¹ s⁻¹.
For B12 the same measures were 2.4 nM, 0.08, 0.00035 s⁻¹ and 140000 M⁻¹ s⁻¹.
For B13, the equilibrium dissociation constant (Kd) is 2.1 nM, the Response is 0.08, the koff came out at 0.00011 s⁻¹ and the kon amounted to 54000 M⁻¹ s⁻¹.
For B14 the same measures were 1.7 nM, 0.11, 0.00016 s⁻¹ and 92000 M⁻¹ s⁻¹.
In the case of B15, the Kd was found to be 12 nM, the Response stood at 0.03, the koff amounted to 0.00045 s⁻¹ and the kon came to 37000 M⁻¹ s⁻¹.
With B16, the Kd came out at 0.59 nM, the Response is 0.09, the koff came out at 3.2e-05 s⁻¹ and the kon worked out at 55000 M⁻¹ s⁻¹.
Turning to B17, the Kd is < 0.001 nM, the Response is 0.07, the koff is < 1e-07 s⁻¹ and the kon came to 35000 M⁻¹ s⁻¹.
On to B18, for which the Kd worked out at 220 nM, the Response came out at 0.05 and the koff turned out to be 0.00022 s⁻¹.
